Experimental data published in patent US11180770B2, “HPPD variants and methods of use” (BASF Agricultural Solutions Seed US LLC, priority 2017, dated 2021).

Test system: HPPD polypeptides
Assay: coupled HPPD activity assay: turnover and residual turnover in crude extracts
Format: biochemical, Pseudomonas fluorescens
Conditions: for Residual turnover: presence of 100 μM Cmpd. 1, changes in absorbance (OD) at 320 nm; for Residual turnover / Turnover: high substrate concentration; for turnover / residual turnover in the presence of Cmpd. 1 compared with a reference HPPD polypeptide, in words: comparison with the reference or parent polypeptide; for Residual turnover [%]: 100 μM Cmpd. 1, signal change with inhibitor divided by signal change without inhibitor; for Turnover: absence of Cmpd. 1, kinetic changes in absorbance (OD) at 320 nm, 30 min
Protocol: The activity of HPPD polypeptides was determined in absence or presence of HPPD inhibitors using the coupled HPPD activity assay (FIG. 1).
For the determination of the residual activity, the apparent kinetic constant (kapp) of the determined substrate conversion was measured as kinetic changes in absorbance (OD) at 320 nm in a coupled assay, in that homogentisate (HGA) formed by HPPD from HPP is directly converted into the well absorbing molecule maleylacetoacetate (MAA) by a second enzyme homogentisate dioxygenase (HGD), applied in excess uniformly in all assays (see FIG. 1). The measurements were performed in 384 micro titer plates (Greiner Bio-One GmbH, Frickenhausen, Germany) by plate readers (Tecan infinite M1000 or M1000PRO, Tecan, Männedorf, Switzerland). The kcat/kM ratio of an enzymatic activity is proportional to the apparent kinetic constant kapp and is proportional to kcat/kM*[E] ([E]=enzyme concentration). […] As both kapp measurements in the presence and absence of inhibitor were performed by use of the identical enzyme sample, crude or purified, and thereby at the same enzyme concentration, the enzyme concentration eliminates from the calculation of residual activity and the ratio of both kapp directly indicates the change of kM due to the inhibition.
The assay solution used for determination of residual activities in raw HPPD polypeptide samples was composed by 200 mM sodium phosphate (Merck, Darmstadt, Germany, pH 7.0), 5 mM MgCl2 (Merck, Darmstadt, Germany), 20 mM ascorbate (Sigma-Aldrich, St. Louis, USA), 1 mM DTT (Sigma-Aldrich, St. Louis, USA), 0.1% Pluronic F-68 (Sigma-Aldrich, St. Louis, USA), 40 μM FeSO4 (Sigma-Aldrich, St. Louis, USA), about 8 mg/ml purified HGD and 500 μM HPP from a 1 M stock solution in DMSO (Sigma-Aldrich, St. Louis, USA) and equilibrated for 20 min on ice. For every HPPD polypeptide sample two assays were performed in quadruplets, whereby 5 μl of HPPD polypeptide sample were mixed firstly with 5 μl buffer (1×BugBuster®; (Merck, Darmstadt, Germany); in 140 mM Tris, pH 7.8, with 1:25000 diluted BNase®; Qiagen, Hilden, Germany)) or 5 μl inhibitor diluted in the same buffer from a 0.1 M stock solution in DMSO (200 μM resulting in 100 μM in the HPPD polypeptide/inhibitor sample) in the reference and inhibition assay, respectively, and subsequently with 10 μl assay solution. The change in absorbance at 320 nm was followed in 1 min intervals for 30 min. The kapp values were calculated as signal slope over time in the early phase of the kinetic reaction, usually for the first 5-10 minutes of the measurements. Additionally and according to the calculated residual activity, the total conversion, i.e. the absolute change in signal, in the 30 min timeframe was monitored as measure of turnover, and a residual turnover was calculated by dividing the change in signal in the presence of inhibitor by the change in signal in the reference sample without inhibitor.
Residual turnover were determined according to Example 3 by measuring total change in signal in the presence and absence of Cmpd. 1 (2-chloro-3-(methylsulfanyl)-N-(1-methyl-1H-tetrazol-5-yl)-4-(trifluoromethyl)benzamide). For each mutant HPPD polypeptide, the total change in signal without HPPD inhibitor herbicides served for normalization of the total change in signal in the presence of the herbicide.

Molecule	Residual turnover	turnover / residual turnover in the presence of Cmpd. 1 compared with a reference HPPD polypeptide, in words	Residual turnover [%]	Turnover
SEQ ID NO:2 (protein, mutant HPPD polypeptide) MADLYENPMGLMGFEFIEFASPTPGTLEPIFEIMGFTKVATHRSKNVHLYRQGEINLILNNEPNSIASYFAAEHGPSVCGMAFRVKDSQKAYNRALELGAQPIHIDTGPMELNLPAIKGIGGAPLYLIDRFGEGSSIYDIDFVYLEGVERNPVGAGLKVIDHLTHNVYRGRMVYWANFYEKLFNFREARYFDIKGEYTGLTSKAMSAPDGMIRIPLNEESSKGAGQIEEFLMQFNGEGIQHVAFLTDDLVKTWDALKKIGMRFMTAPPDTYYEMLEGRLPDHGEPVDQLQARGILLDGSSVEGDKRLLLQIFSETLMGPVFFEFIQRKGDDGFGPWNFAQLFESIERDQVRRGVLTAD	0.026	–	–	–
SEQ ID NO: 24: mutant PfHPPD: 268A 335P 336H 337S 340V (protein, mutant HPPD polypeptide, mutant PfHPPD: 268A 335P 336H 337S 340V) MADLYENPMGLMGFEFIEFASPTPGTLEPIFEIMGFTKVATHRSKNVHLYRQGEINLILNNEPNSIASYFAAEHGPSVCGMAFRVKDSQKAYNRALELGAQPIHIDTGPMELNLPAIKGIGGAPLYLIDRFGEGSSIYDIDFVYLEGVERNPVGAGLKVIDHLTHNVYRGRMVYWANFYEKLFNFREARYFDIKGEYTGLTSKAMSAPDGMIRIPLNEESSKGAGQIEEFLMQFNGEGIQHVAFLTDDLVKTWDALKKIGMRFMTAPADTYYEMLEGRLPDHGEPVDQLQARGILLDGSSVEGDKRLLLQIFSETLMGPVFFEFIQRKGDDGFGPHSFKVLFESIERDQVRRGVLTAD	–	increase in the residual turnover	–	–
SEQ ID NO:71 (protein, mutant HPPD polypeptide) MADLYENPMGLMGFEFIEFASPTPGTLEPIFEIMGFTKVATHRSKNVHLYRQGEINLILNNEPNSIASYFAAEHGPSVCGMAFRVKDSQKAYNRALELGAQPIHIDTGPMELNLPAIKGIGGAPLYLIDRFGEGSSIYDIDFVYLEGVERNPVGAGLKVIDHLTHNVYRGRMVYWANFYEKLFNFREARYFDIKGEYTGLTSKAMSAPDGMIRILLNEESSKGAGQIEEFLMQFNGEGIQHVAFLTDDLVKTWDALKKIGMRFMTAPPDTYYEMLEGRLPDHGEPVDQLQARGILLDGSSVEGDKRLLLQIFSETLMGPVFFEFIQRKGDDGFGPFNFKELFESIERDQVRRGVLTAD	0.022	–	–	–
SEQ ID NO: 67: mutant PfHPPD: 213K 268A 270S 315R 335P 336H 337S 340V 344Q 345M (protein, mutant HPPD polypeptide, mutant PfHPPD: 213K 268A 270S 315R 335P 336H 337S 340V 344Q 345M) MADLYENPMGLMGFEFIEFASPTPGTLEPIFEIMGFTKVATHRSKNVHLYRQGEINLILNNEPNSIASYFAAEHGPSVCGMAFRVKDSQKAYNRALELGAQPIHIDTGPMELNLPAIKGIGGAPLYLIDRFGEGSSIYDIDFVYLEGVERNPVGAGLKVIDHLTHNVYRGRMVYWANFYEKLFNFREARYFDIKGEYTGLTSKAMSAPDGMIKIPLNEESSKGAGQIEEFLMQFNGEGIQHVAFLTDDLVKTWDALKKIGMRFMTAPADSYYEMLEGRLPDHGEPVDQLQARGILLDGSSVEGDKRLLLQIFSERLMGPVFFEFIQRKGDDGFGPHSFKVLFEQMERDQVRRGVLTAD	–	increase significantly the turnover and the residual turnover	–	–
48 (protein, mutant HPPD polypeptide) MADLYENPMGLMGFEFIEFASPTPGTLEPIFEIMGFTKVATHRSKNVHLYRQGEINLILNNEPNSIASYFAAEHGPSVCGMAFRVKDSQKAYNRALELGAQPIHIDTGPMELNLPAIKGIGGAPLYLIDRFGEGSSIYDIDFVYLEGVERNPVGAGLKVIDHLTHNVYRGRMVYWANFYEKLFNFREARYFDIKGEYTGLTSKAMSAPDGMIRIPLNEESSKGAGQIEEFLMQFNGEGIQHVAFLTDDLVKTWDALKKIGMRFMTAPGDNYYEMLEGRLPDHGEPVDQLQARGILLDGSSVEGDKRLLLQIFSETLMGPVFFEFIQRKGDDGFGPHSFKVLFEQMERDQVRRGVLTAD	0.117	–	52%	0.225
47 (protein, mutant HPPD polypeptide) MADLYENPMGLMGFEFIEFASPTPGTLEPIFEIMGFTKVATHRSKNVHLYRQGEINLILNNEPNSIASYFAAEHGPSVCGMAFRVKDSQKAYNRALELGAQPIHIDTGPMELNLPAIKGIGGAPLYLIDRFGEGSSIYDIDFVYLEGVERNPVGAGLKVIDHLTHNVYRGRMVYWANFYEKLFNFREARYFDIKGEYTGLTSKAMSAPDGMIRIPLNEESSKGAGQIEEFLMQFNGEGIQHVAFLTDDLVKTWDALKKIGMRFMTAPADNYYEMLEGRLPDHGEPVDQLQARGILLDGSSVEGDKRLLLQIFSETLMGPVFFEFIQRKGDDGFGPHSFKVLFEQMERDQVRRGVLTAD	0.166	–	53%	0.314
SEQ ID NO: 6: mutant PfHPPD: 268A 270N 335P 336D 337S 340V (protein, mutant HPPD polypeptide, mutant PfHPPD: 268A 270N 335P 336D 337S 340V) MADLYENPMGLMGFEFIEFASPTPGTLEPIFEIMGFTKVATHRSKNVHLYRQGEINLILNNEPNSIASYFAAEHGPSVCGMAFRVKDSQKAYNRALELGAQPIHIDTGPMELNLPAIKGIGGAPLYLIDRFGEGSSIYDIDFVYLEGVERNPVGAGLKVIDHLTHNVYRGRMVYWANFYEKLFNFREARYFDIKGEYTGLTSKAMSAPDGMIRIPLNEESSKGAGQIEEFLMQFNGEGIQHVAFLTDDLVKTWDALKKIGMRFMTAPADNYYEMLEGRLPDHGEPVDQLQARGILLDGSSVEGDKRLLLQIFSETLMGPVFFEFIQRKGDDGFGPDSFKVLFESIERDQVRRGVLTAD	–	increase in the absolute turnover and absolute residual turnover	–	–
46 (protein, mutant HPPD polypeptide) MADLYENPMGLMGFEFIEFASPTPGTLEPIFEIMGFTKVATHRSKNVHLYRQGEINLILNNEPNSIASYFAAEHGPSVCGMAFRVKDSQKAYNRALELGAQPIHIDTGPMELNLPAIKGIGGAPLYLIDRFGEGSSIYDIDFVYLEGVERNPVGAGLKVIDHLTHNVYRGRMVYWANFYEKLFNFREARYFDIKGEYTGLTSKAMSAPDGMIRIPLNEESSKGAGQIEEFLMQFNGEGIQHVAFLTDDLVKTWDALKKIGMRFMTAPGDNYYEMLEGRLPDHGEPVDQLQARGILLDGSSVEGDKRLLLQIFSETLMGPVFFEFIQRKGDDGFGPHSFKVLFEQVERDQVRRGVLTAD	0.098	–	55%	0.179
SEQ ID NO:3 (protein, mutant HPPD polypeptide) MADLYENPMGLMGFEFIEFASPTPGTLEPIFEIMGFTKVATHRSKNVHLYRQGEINLILNNEPNSIASYFAAEHGPSVCGMAFRVKDSQKAYNRALELGAQPIHIDTGPMELNLPAIKGIGGAPLYLIDRFGEGSSIYDIDFVYLEGVERNPVGAGLKVIDHLTHNVYRGRMVYWANFYEKLFNFREARYFDIKGEYTGLTSKAMSAPDGMIRIPLNEESSKGAGQIEEFLMQFNGEGIQHVAFLTDDLVKTWDALKKIGMRFMTAPADTYYEMLEGRLPDHGEPVDQLQARGILLDGSSVEGDKRLLLQIFSETLMGPVFFEFIQRKGDDGFGPDSFKVLFESIERDQVRRGVLTAD	–	improvement regarding residual turnovers	–	–
